Source: paper PMC3630103 (2013)

B1: chimeric mouse-human CHK-152 N297Q (aglycosyl variant) (antibody, V domains shown)
VH: QVQLQQPGAALVKPGASAMMSCKASGYTFTSYWITWVKQRPGQGLEWIGDIYPGTGRTIYKEKFKTKATLTVDTSSSTAFMQLNSLTSEDSAVYYCARGYGSPYYALDYWGQGTSVTVSS
VL: DIVLTQSPASLAVSQGQRATISCKASQSVDYDGDSYVNWYQQKPGQSPKLLIYDASNLESGIPARFSGSGSGTDFTLNIHPVEEEDVATYYCQESNEDPRTFGGGTKLEIK
B2: chimeric mouse-human CHK-152 (antibody, V domains shown)
VH: B1 VH
VL: B1 VL

Molecular target: CHIKV pE2-E1 (E3-E2-E1) of the CHIKV-LR strain (Chikungunya virus (strain La Reunion …, UniProt Q8JUX5))
Experiment: SPR

Sequence of CHIKV pE2-E1 (E3-E2-E1) of the CHIKV-LR strain (Chikungunya virus (Q8JUX5 whole entry, looked up): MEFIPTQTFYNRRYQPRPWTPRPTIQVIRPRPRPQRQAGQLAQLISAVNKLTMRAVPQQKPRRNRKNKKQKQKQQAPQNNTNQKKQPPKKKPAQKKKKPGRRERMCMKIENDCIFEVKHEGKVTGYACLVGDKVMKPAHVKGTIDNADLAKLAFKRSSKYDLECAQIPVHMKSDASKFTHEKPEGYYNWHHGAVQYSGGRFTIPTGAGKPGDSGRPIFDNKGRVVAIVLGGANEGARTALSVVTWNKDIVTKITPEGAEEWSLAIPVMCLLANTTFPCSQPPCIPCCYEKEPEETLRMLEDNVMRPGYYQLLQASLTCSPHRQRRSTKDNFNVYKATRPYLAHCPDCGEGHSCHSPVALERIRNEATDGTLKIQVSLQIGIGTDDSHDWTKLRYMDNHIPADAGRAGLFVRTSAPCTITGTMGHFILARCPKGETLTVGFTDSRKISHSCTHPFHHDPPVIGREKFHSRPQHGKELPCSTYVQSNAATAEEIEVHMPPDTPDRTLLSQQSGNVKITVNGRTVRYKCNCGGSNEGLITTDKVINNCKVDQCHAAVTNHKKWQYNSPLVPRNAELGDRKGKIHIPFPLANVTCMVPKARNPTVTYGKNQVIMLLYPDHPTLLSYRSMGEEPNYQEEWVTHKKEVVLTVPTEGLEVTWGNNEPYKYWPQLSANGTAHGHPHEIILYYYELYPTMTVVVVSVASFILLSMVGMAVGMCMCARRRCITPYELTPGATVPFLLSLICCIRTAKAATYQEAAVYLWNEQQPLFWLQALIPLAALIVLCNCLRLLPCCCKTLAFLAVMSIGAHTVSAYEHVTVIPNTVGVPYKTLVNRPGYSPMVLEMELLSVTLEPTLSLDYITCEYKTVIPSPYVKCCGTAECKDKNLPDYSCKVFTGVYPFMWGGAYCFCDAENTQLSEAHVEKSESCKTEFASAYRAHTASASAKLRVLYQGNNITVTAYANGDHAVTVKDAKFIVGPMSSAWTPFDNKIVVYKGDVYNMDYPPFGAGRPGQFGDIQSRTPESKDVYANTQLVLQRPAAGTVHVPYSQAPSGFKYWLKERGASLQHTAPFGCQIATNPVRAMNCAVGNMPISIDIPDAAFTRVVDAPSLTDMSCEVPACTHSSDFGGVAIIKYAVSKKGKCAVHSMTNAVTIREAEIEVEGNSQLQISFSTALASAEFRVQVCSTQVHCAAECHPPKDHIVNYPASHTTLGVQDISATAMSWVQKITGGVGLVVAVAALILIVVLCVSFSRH

Binder	Kd [nM]	koff [s⁻¹]
B1	3.9	0.00051
B2	3.1	0.0004
